B1: NLV2 TCR alpha chain (CDR3α only) (parent)
chain: AGPMKTSYDKVI

The values below come from paper PMC13397619.

The first assay covers variants of B1. Kind of assay: T-Switch: Jurkat TCRβ−/− cells expressing a CDR3 saturation-mutagenesis library, stained with two peptide-HLA-A*02:01 tetramers (original and novel peptide) plus anti-CD3, FACS-sorted into four gates, gDNA sequenced. To be noted: with both tetramers (double-negative gate, binds neither): HLA-A*02:01 with … and with …, tetramers 1 µg/mL, 30 min on ice, SP, DP and SW gates expanded about 10 days between rounds ('two to three rounds of selection' in the Methods), gate DN: OPPOSITE: higher = more of the variant in the gate that binds neither peptide = LESS binding (or no expression; inferred). Fold enrichment of the CDR3 variant in one FACS gate of a two-tetram, unresolved parent, parent is a CDR3 fragment, scale: fold enrichment, numbering: sequential-on-construct, sequence starts at 1.
With […] (CDR3 as printed); K10I derived by comparing it with the table's wild-type CDR3 AGPMKTSYDKVI, the enrichment worked out at 1.1.

For […] (CDR3 as printed); K10D derived by comparing it with the table's wild-type CDR3 AGPMKTSYDKVI, the enrichment was 0.842.

On to […] (CDR3 as printed); S7N derived by comparing it with the table's wild-type CDR3 AGPMKTSYDKVI, for which the enrichment worked out at 1.31.

On to […] (CDR3 as printed); G2H derived by comparing it with the table's wild-type CDR3 AGPMKTSYDKVI, for which the enrichment worked out at 0.822.

[…] (CDR3 as printed); D9P derived by comparing it with the table's wild-type CDR3 AGPMKTSYDKVI: the enrichment stood at 1.22.

As for […] (CDR3 as printed); A1H derived by comparing it with the table's wild-type CDR3 AGPMKTSYDKVI, the enrichment came to 0.735.

Consider […] (CDR3 as printed); Y8W derived by comparing it with the table's wild-type CDR3 AGPMKTSYDKVI, for which the enrichment came out at 1.01.

Turning to […] (CDR3 as printed); T6D derived by comparing it with the table's wild-type CDR3 AGPMKTSYDKVI, the enrichment was 1.18.

[…] (CDR3 as printed); M4L derived by comparing it with the table's wild-type CDR3 AGPMKTSYDKVI: the enrichment turned out to be 0.995.

For the variant […] (CDR3 as printed); D9R derived by comparing it with the table's wild-type CDR3 AGPMKTSYDKVI, the enrichment was 1.08.

As for […] (CDR3 as printed); Y8K derived by comparing it with the table's wild-type CDR3 AGPMKTSYDKVI, the enrichment stood at 0.928.

Consider […] (CDR3 as printed); G2V derived by comparing it with the table's wild-type CDR3 AGPMKTSYDKVI, for which the enrichment came to 0.88.

As to […] (CDR3 as printed); A1L derived by comparing it with the table's wild-type CDR3 AGPMKTSYDKVI, the enrichment was found to be 0.94.

Turning to […] (CDR3 as printed); G2K derived by comparing it with the table's wild-type CDR3 AGPMKTSYDKVI, the enrichment was found to be 0.928.

Take […] (CDR3 as printed); G2L derived by comparing it with the table's wild-type CDR3 AGPMKTSYDKVI: the enrichment is 0.978.

Consider […] (CDR3 as printed); G2P derived by comparing it with the table's wild-type CDR3 AGPMKTSYDKVI, for which the enrichment was 0.883.

Consider […] (CDR3 as printed); D9M derived by comparing it with the table's wild-type CDR3 AGPMKTSYDKVI, for which the enrichment worked out at 0.931.

For […] (CDR3 as printed); T6K derived by comparing it with the table's wild-type CDR3 AGPMKTSYDKVI, the enrichment turned out to be 1.04.

As for […] (CDR3 as printed); P3S derived by comparing it with the table's wild-type CDR3 AGPMKTSYDKVI, the enrichment was found to be 1.18.

With […] (CDR3 as printed); P3I derived by comparing it with the table's wild-type CDR3 AGPMKTSYDKVI, the enrichment is 1.09.

Regarding […] (CDR3 as printed); M4F derived by comparing it with the table's wild-type CDR3 AGPMKTSYDKVI, the enrichment was 1.34.

In the case of […] (CDR3 as printed); T6S derived by comparing it with the table's wild-type CDR3 AGPMKTSYDKVI, the enrichment worked out at 1.05.

For the variant […] (CDR3 as printed); Y8M derived by comparing it with the table's wild-type CDR3 AGPMKTSYDKVI, the enrichment was 1.1.

With […] (CDR3 as printed); K5Q derived by comparing it with the table's wild-type CDR3 AGPMKTSYDKVI, the enrichment stood at 0.51.

Take […] (CDR3 as printed); A1Q derived by comparing it with the table's wild-type CDR3 AGPMKTSYDKVI: the enrichment was 0.89.

Staying with this assay, now noted: with both tetramers (double-positive gate): HLA-A*02:01 with … and with …, tetramers 1 µg/mL, 30 min on ice, SP, DP and SW gates expanded about 10 days between rounds ('two to three rounds of selection' in the Methods), gate DP: higher = more of the variant in the gate that binds both peptides. Fold enrichment of the CDR3 variant in one FACS gate of a two-tetramer stain. SP/DP/SW gates were expanded and re-sorted bef, unresolved parent, parent is a CDR3 fragment, scale: fold enrichment, numbering: sequential-on-construct, sequence starts at 1.
As for […] (CDR3 as printed); K10I derived by comparing it with the table's wild-type CDR3 AGPMKTSYDKVI, the enrichment was found to be 0.

As for […] (CDR3 as printed); K10D derived by comparing it with the table's wild-type CDR3 AGPMKTSYDKVI, the enrichment was 0.

Take […] (CDR3 as printed); S7N derived by comparing it with the table's wild-type CDR3 AGPMKTSYDKVI: the enrichment amounted to 0.

Regarding […] (CDR3 as printed); G2H derived by comparing it with the table's wild-type CDR3 AGPMKTSYDKVI, the enrichment was found to be 0.

As to […] (CDR3 as printed); D9P derived by comparing it with the table's wild-type CDR3 AGPMKTSYDKVI, the enrichment was found to be 0.

[…] (CDR3 as printed); A1H derived by comparing it with the table's wild-type CDR3 AGPMKTSYDKVI: the enrichment was determined as 0.

Take […] (CDR3 as printed); Y8W derived by comparing it with the table's wild-type CDR3 AGPMKTSYDKVI: the enrichment worked out at 0.

As to […] (CDR3 as printed); T6D derived by comparing it with the table's wild-type CDR3 AGPMKTSYDKVI, the enrichment worked out at 0.

Turning to […] (CDR3 as printed); M4L derived by comparing it with the table's wild-type CDR3 AGPMKTSYDKVI, the enrichment was 0.

[…] (CDR3 as printed); D9R derived by comparing it with the table's wild-type CDR3 AGPMKTSYDKVI: the enrichment amounted to 0.

With […] (CDR3 as printed); Y8K derived by comparing it with the table's wild-type CDR3 AGPMKTSYDKVI, the enrichment is 0.

As for […] (CDR3 as printed); G2V derived by comparing it with the table's wild-type CDR3 AGPMKTSYDKVI, the enrichment amounted to 0.

Take […] (CDR3 as printed); A1L derived by comparing it with the table's wild-type CDR3 AGPMKTSYDKVI: the enrichment came out at 0.

On to […] (CDR3 as printed); G2K derived by comparing it with the table's wild-type CDR3 AGPMKTSYDKVI, for which the enrichment was found to be 0.

As to […] (CDR3 as printed); G2L derived by comparing it with the table's wild-type CDR3 AGPMKTSYDKVI, the enrichment is 0.

As for […] (CDR3 as printed); G2P derived by comparing it with the table's wild-type CDR3 AGPMKTSYDKVI, the enrichment is 0.

In the case of […] (CDR3 as printed); D9M derived by comparing it with the table's wild-type CDR3 AGPMKTSYDKVI, the enrichment was 0.

As to […] (CDR3 as printed); T6K derived by comparing it with the table's wild-type CDR3 AGPMKTSYDKVI, the enrichment was 0.

Consider […] (CDR3 as printed); P3S derived by comparing it with the table's wild-type CDR3 AGPMKTSYDKVI, for which the enrichment worked out at 0.

For the variant […] (CDR3 as printed); P3I derived by comparing it with the table's wild-type CDR3 AGPMKTSYDKVI, the enrichment was 0.

For the variant […] (CDR3 as printed); M4F derived by comparing it with the table's wild-type CDR3 AGPMKTSYDKVI, the enrichment was 0.

For the variant […] (CDR3 as printed); T6S derived by comparing it with the table's wild-type CDR3 AGPMKTSYDKVI, the enrichment was 0.

As for […] (CDR3 as printed); Y8M derived by comparing it with the table's wild-type CDR3 AGPMKTSYDKVI, the enrichment came out at 0.

As to […] (CDR3 as printed); K5Q derived by comparing it with the table's wild-type CDR3 AGPMKTSYDKVI, the enrichment was determined as 0.

As to […] (CDR3 as printed); A1Q derived by comparing it with the table's wild-type CDR3 AGPMKTSYDKVI, the enrichment is 0.
